Residue numbers refer to the chain shown, from its start. Names and notes keep the numbering of the source. One block for each binder: values may come before it.
How the values were obtained:
DcR3 = target: T1, DcR3 (UniProt O95407 30-300, limits assumed); assay: ELISA, DcR3
T1 construct: the construct is not described; also called decoy receptor DcR3; TNFRSF6B
T1 sequence (looked up): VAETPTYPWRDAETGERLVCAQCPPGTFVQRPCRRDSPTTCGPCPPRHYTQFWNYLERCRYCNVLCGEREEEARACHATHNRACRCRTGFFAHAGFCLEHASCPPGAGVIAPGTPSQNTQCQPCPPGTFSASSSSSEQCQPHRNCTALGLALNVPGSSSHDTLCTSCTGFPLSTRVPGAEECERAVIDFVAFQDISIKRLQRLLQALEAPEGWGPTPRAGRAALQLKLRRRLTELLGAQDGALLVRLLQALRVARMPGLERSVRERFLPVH

[1] = target: T2, Recombinant DR3-Fc (R&D Systems, cat. #943-D3) (UniProt Q93038 25-199, limits assumed); assay: ELISA, DR3-Fc immobilized
T2 construct: dimeric MW~92 kDa; also called DR3 receptor; Fc-DR3; not shown: Fc part of the bought fusion
T2 sequence (looked up): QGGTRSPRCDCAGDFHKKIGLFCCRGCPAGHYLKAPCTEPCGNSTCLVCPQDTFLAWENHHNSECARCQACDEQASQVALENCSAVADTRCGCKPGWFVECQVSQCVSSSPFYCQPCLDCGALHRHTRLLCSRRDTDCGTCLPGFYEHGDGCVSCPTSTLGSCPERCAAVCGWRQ
Experimental: All ELISA-based measurements were collected in triplicate, and error values report the standard error between measurements. Recombinant DR3-Fc (R&D Systems, cat. #943-D3), dimeric MW˜92 kDa, was non-specifically immobilized onto plates (Nunc maxisorp, cat. #436110) in 100 μL DR3-Fc, diluted to 10 μg/mL onto a 96-well White Maxisorp plate (Nunc, cat #436110) (O/N, 4° C.). Plates were block for 1 hour at room temperature with 250 μl/well of casein buffer and blocking buffer was removed. 50 μL of TL1A variants were diluted in StartingBlock PBS (Thermo Fisher Scientific), at 25 μg/mL, diluting 3× over each well, according to the plate map description for 20160623) per well on a 96-well White Maxisorp plate (Nunc, cat #: 436110) (overnight at 4° C.).
Plates were washed three times with TBST. 100 μl/well polyclonal rabbit anti-human TL1A-biotin antibody (diluted 1:1000 in Starting Block PBS) was added and plates were incubated for 1 hour at room temperature with shaking at 150 rpm. TL1A-biotin antibody was removed and 100 μl/well streptavidin-HRP conjugate (diluted 1:10,000 in Starting Block PBS) was added to plates. Plates were incubated for 1 hour at room temperature with shaking at 150 rpm. Plates were washed three times with TBST. 100 μl/well POD Chemiluminescence substrate (Roche, cat #: 11582950001) was added immediately prior to reading plate luminescence using a Molecular Devices M5 plate reader with a delay setting of 100 ms.
Variants of TL1A were generated and tested for binding to DR3 and DcR3 by ELISA as described.

B2: TL1W123 (His-TEV-TL1A N207S) (ligand)
chain: HHHHHHENLYFQGLKGQEFAPSHQQVYAPLRADGDKPRAHLTVVRQTPTQHFKNQFPALHWEHELGLAFTKNRMNYTNKFLLIPESGDYFIYSQVTFRGMTSECSEIRQAGRPNKPDSITVVITKVTDSYPEPTQLLMGTKSVCEVGSSWFQPIYLGAMFSLQEGDKLMVNVSDISLVDYTKEDKTFFGAFLL
notes: also called TL1W123 (N207S)
- EC50 (DcR3): 0.0086 µM
- Rel EC50 (DcR3): 1.9 ratio (head: nM)
- EC50 [1]: 0.0268 µM
- Rel EC50 [1]: 1 ratio (head: nM)

B3: TL1W113 (His-TEV-TL1A P189S) (ligand)
chain: B2 chain with P131S, S149N
notes: also called TL1W113 (P189S)
- EC50 (DcR3): 0.0198 µM
- Rel EC50 (DcR3): 4.3 ratio (head: nM)
- EC50 [1]: 1 µM
- Rel EC50 [1]: 38.2 ratio (head: nM)

B4: TL1W84 (His-TEV-TL1A E120H) (ligand)
chain: B2 chain with E62H, S149N
notes: also called TL1W84 (E120H)
- EC50 (DcR3): 0.0557 µM
- Rel EC50 (DcR3): 12.1 ratio (head: nM)
- EC50 [1]: 0.182 µM
- Rel EC50 [1]: 7 ratio (head: nM)

B5: TL1W96 (His-TEV-TL1A R170E) (ligand)
chain: B2 chain with R112E, S149N
notes: also called TL1W96 (R170E)
- EC50 (DcR3): 0.0164 µM
- Rel EC50 (DcR3): 3.6 ratio (head: nM)
- EC50 [1]: 0.087 µM
- Rel EC50 [1]: 3.3 ratio (head: nM)

B7: TL1W94 (His-TEV-TL1A M158E) (ligand)
chain: B2 chain with M100E, S149N
notes: also called TL1W94 (M158E)
- EC50 (DcR3): 0.0187 µM
- Rel EC50 (DcR3): 4.1 ratio (head: nM)
- EC50 [1]: 0.0587 µM
- Rel EC50 [1]: 2.2 ratio (head: nM)

B8: TL1W121 (His-TEV-TL1A S206E) (ligand)
chain: B2 chain with S148E, S149N
notes: also called TL1W121 (S206E)
- EC50 (DcR3): 0.0172 µM
- Rel EC50 (DcR3): 3.7 ratio (head: nM)
- EC50 [1]: 0.105 µM
- Rel EC50 [1]: 4 ratio (head: nM)

B9: TL1W118 (His-TEV-TL1A S206A) (ligand)
chain: B2 chain with S148A, S149N
notes: also called TL1W118 (S206A)
- EC50 (DcR3): 0.0088 µM
- Rel EC50 (DcR3): 1.9 ratio (head: nM)
- EC50 [1]: 0.0417 µM
- Rel EC50 [1]: 1.6 ratio (head: nM)

B12: TL1W112 (His-TEV-TL1A P189F) (ligand)
chain: B2 chain with P131F, S149N
notes: also called TL1W112 (P189F)
- EC50 (DcR3): 0.0661 µM
- Rel EC50 (DcR3): 14.4 ratio (head: nM)
- EC50 [1]: 0.202 µM
- Rel EC50 [1]: 7.7 ratio (head: nM)

B16: TL1W106 (His-TEV-TL1A T185D) (ligand)
chain: B2 chain with T127D, S149N
notes: also called TL1W106 (T185D)
- EC50 (DcR3): 0.0799 µM
- Rel EC50 (DcR3): 17.4 ratio (head: nM)
- EC50 [1]: 0.123 µM
- Rel EC50 [1]: 4.7 ratio (head: nM)

B17: TL1W125 (His-TEV-TL1A N207E) (ligand)
chain: B2 chain with S149E
notes: also called TL1W125 (N207E)
- EC50 (DcR3): 0.0098 µM
- Rel EC50 (DcR3): 2.1 ratio (head: nM)
- EC50 [1]: 0.506 µM
- Rel EC50 [1]: 19.3 ratio (head: nM)

Continued by falling EC50 (DcR3), values first:

- EC50 (DcR3): 0.091 µM
- Rel EC50 (DcR3): 19.8 ratio (head: nM)
- EC50 [1]: 0.114 µM
- Rel EC50 [1]: 4.4 ratio (head: nM)
B14: TL1W120 (His-TEV-TL1A S206K) (ligand)
chain: B2 chain with S148K, S149N
notes: also called TL1W120 (S206K)

- EC50 (DcR3): 0.0559 µM
- Rel EC50 (DcR3): 12.1 ratio (head: nM)
- EC50 [1]: 0.0225 µM
- Rel EC50 [1]: 0.9 ratio (head: nM)
B10: TL1W93 (His-TEV-TL1A M158K) (ligand)
chain: B2 chain with M100K, S149N
notes: also called TL1W93 (M158K)

- EC50 (DcR3): 0.0158 µM
- Rel EC50 (DcR3): 3.4 ratio (head: nM)
- EC50 [1]: 0.0337 µM
- Rel EC50 [1]: 1.3 ratio (head: nM)
B1: TL1W110 (His-TEV-TL1A S187K) (ligand)
chain: B2 chain with S129K, S149N
notes: also called TL1W110 (S187K)

- EC50 (DcR3): 0.012 µM
- Rel EC50 (DcR3): 2.6 ratio (head: nM)
- EC50 [1]: 0.113 µM
- Rel EC50 [1]: 4.3 ratio (head: nM)
B11: TL1W117 (His-TEV-TL1A T192E) (ligand)
chain: B2 chain with T134E, S149N
notes: also called TL1W117 (T192E)

- EC50 (DcR3): 0.0113 µM
- Rel EC50 (DcR3): 2.4 ratio (head: nM)
- EC50 [1]: 0.179 µM
- Rel EC50 [1]: 6.9 ratio (head: nM)
B6: TL1W105 (His-TEV-TL1A T185N) (ligand)
chain: B2 chain with T127N, S149N
notes: also called TL1W105 (T185N)

- EC50 (DcR3): 0.011 µM
- Rel EC50 (DcR3): 2.4 ratio (head: nM)
- EC50 [1]: 0.188 µM
- Rel EC50 [1]: 7.2 ratio (head: nM)
B15: TL1W90 (His-TEV-TL1A R156K) (ligand)
chain: B2 chain with R98K, S149N
notes: also called TL1W90 (R156K)

- EC50 (DcR3): 0.0106 µM
- Rel EC50 (DcR3): 2.3 ratio (head: nM)
- EC50 [1]: 0.0142 µM
- Rel EC50 [1]: 0.5 ratio (head: nM)
B13: TL1W115 (His-TEV-TL1A T192F) (ligand)
chain: B2 chain with T134F, S149N
notes: also called TL1W115 (T192F)

Source: patent US20220056104A1 (Janssen / Centocor, published 2022)
